How the values were obtained:
[1] = target: AceE fragment 5, stalled nascent chain (E. coli); experiment: optical tweezers with two-color confocal single-molecule fluorescence; single stalled ribosome-nascent chain complexes tethered between beads by DNA handles; 100 nM labelled TF and 100 nM labelled DnaK in solution, with or without 17 nM DnaJ and 10 nM GrpE; TICO buffer, 1 mM ATP and regeneration system
[2] = target: AceE fragment 2, stalled nascent chain (E. coli) (UniProt P0AFG8); experiment: as above
UniProt P0AFG8, sequence (P0AFG8 1-200): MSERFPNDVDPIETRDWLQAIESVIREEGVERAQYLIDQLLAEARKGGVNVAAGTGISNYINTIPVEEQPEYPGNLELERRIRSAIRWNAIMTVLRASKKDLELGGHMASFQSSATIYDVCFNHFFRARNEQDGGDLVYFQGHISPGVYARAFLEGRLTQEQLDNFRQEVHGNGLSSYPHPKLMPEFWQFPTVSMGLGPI

residence time (nascent chains folded by more than one-third) [1] [s] | residence time (nascent chains less than one-third folded) [1] [s] | binding time (more folded nascent chains) [2] [s] | Substance
> 10 | < 5 | – | DnaK-290C, ATTO532 labelled (from UniProt P0A6Y8 1-638) (natural protein)
– | – | > 50 | TF-99C, ATTO647N labelled (from UniProt P0A850 1-432) (natural protein)

Reference: article PMC12065913
